In test [1] the target is epidermal growth factor receptor, endogenous in A431 cell lysate (human (endogenous in A431)) (UniProt P00533). Put plainly: ELISA. (In general: In an ELISA, binding on a coated surface is turned into a signal by an enzyme label.)
Test [2] concerns the target epidermal growth factor receptor, endogenous in A431 cell lysate (human (endogenous in A431), UniProt P00533 25-1210). Put plainly: ELISA.

The values below come from PMC5893359 (Cancer cell, 2018).

The Kd is the free concentration of one partner at which half of the binding sites on the other are occupied at equilibrium, for simple one-to-one binding. Low readings indicate a tighter complex, high ones a looser complex. For “amphiregulin, recombinant (from UniProt P15514 20-187) (ligand)”, the Kd in test [1] came out at 217 nM.

B1: bovine RNase A (enzyme, UniProt P61823 27-150, looked up)
chain: KETAAAKFERQHMDSSTSAASSSNYCNQMMKSRNLTKDRCKPVNTFVHESLADVQAVCSQKNVACKNGQTNCYQSYSTMSITDCRETGSSKYPNCAYKTTQANKHIIVACEGNPYVPVHFDASV
Molecule B1 yielded a Kd in test [2] of 885 nM.
